# Experimental data from patent US20220227829A1 (SHANGHAI GP BIOTECH, published 2022).
# Changes are numbered by the printed parent chain. Names may count otherwise. Like-named read-outs stand apart in the source and are kept apart here.
# T1: CD25 on the surface of NK92 cells (human NK cell line) (human, UniProt P01589 22-272)
# T1 sequence (looked up): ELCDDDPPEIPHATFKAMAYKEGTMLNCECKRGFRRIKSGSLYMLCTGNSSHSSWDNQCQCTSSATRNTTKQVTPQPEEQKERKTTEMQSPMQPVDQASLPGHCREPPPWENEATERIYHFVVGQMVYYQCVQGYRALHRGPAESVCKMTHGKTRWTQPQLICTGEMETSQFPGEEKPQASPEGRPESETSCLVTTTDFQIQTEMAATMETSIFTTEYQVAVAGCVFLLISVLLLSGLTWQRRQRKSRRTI
# T2: CD25 protein (from Example 2)
# T2 chain: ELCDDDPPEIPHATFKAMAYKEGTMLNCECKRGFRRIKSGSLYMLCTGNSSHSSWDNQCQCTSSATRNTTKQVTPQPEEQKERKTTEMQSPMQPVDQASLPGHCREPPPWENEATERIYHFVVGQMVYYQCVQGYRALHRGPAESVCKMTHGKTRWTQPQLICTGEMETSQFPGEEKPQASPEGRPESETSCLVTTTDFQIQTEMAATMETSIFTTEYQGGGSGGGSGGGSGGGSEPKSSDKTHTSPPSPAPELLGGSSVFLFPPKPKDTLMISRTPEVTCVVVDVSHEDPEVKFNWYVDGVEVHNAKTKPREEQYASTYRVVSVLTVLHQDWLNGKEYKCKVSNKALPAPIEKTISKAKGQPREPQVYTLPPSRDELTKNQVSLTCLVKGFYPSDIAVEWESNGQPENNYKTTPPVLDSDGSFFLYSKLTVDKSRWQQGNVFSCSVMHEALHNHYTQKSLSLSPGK
# T3: CD25 on the surface of CTLL-2 cells (mouse cytotoxic T lymphocyte cell line) (mouse, UniProt P01590 22-268)
# T3 sequence (looked up): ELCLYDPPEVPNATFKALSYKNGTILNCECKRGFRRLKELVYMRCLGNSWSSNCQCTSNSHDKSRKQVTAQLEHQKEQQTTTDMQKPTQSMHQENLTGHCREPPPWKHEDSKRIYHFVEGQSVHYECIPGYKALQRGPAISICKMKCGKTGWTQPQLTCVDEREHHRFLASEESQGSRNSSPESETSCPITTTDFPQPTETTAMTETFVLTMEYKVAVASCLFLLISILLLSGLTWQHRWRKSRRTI
# T4: CD25 on the surface of CTLL-2 cells (mouse cytotoxic T lymphocyte cell line) (mouse) (UniProt P01590)
# T4 sequence (looked up): T3 sequence (looked up)
# B1: IL-2gm8 (T3A, M39N, K49N), HIS tag (ligand)
# chain: APASSSTKKTQLQLEHLLLDLQMILNGINNYKNPKLTRNLTFKFYMPKNATELKHLQCLEEELKPLEEVLNLAQSKNFHLRPRDLISNINVIVLELKGSETTFMCEYADETATIVEFLNRWITFAQSIISTLTHHHHHH
# notes: Expressed in Expi293F cells; also called IL-2gm8-His
# B2: IL-2gm15 (T3A, M39N, K49N, D109N), HIS tag (ligand)
# chain: B1 chain with D109N
# notes: Expressed in Expi293F cells; also called IL-2gm15-His
# B3: IL-2gm9 (T3A, M39N, A73T), HIS tag (ligand)
# chain: B1 chain with N49K, A73T
# notes: Expressed in Expi293F cells; also called IL-2gm9-His
# B4: IL-2gm14 (T3A, M39N, A73T, D109N), HIS tag (ligand)
# chain: B1 chain with N49K, A73T, D109N
# notes: Expressed in Expi293F cells; also called IL-2gm14-His
# B5: IL-2gm10 (T3A, M39N, D109N), HIS tag (ligand)
# chain: B1 chain with N49K, D109N
# notes: Expressed in Expi293F cells; also called IL-2gm10-His
# B6: IL-2gm4 (T3A, K49N, A73T), IgG1-Fc tag (Fc fusion)
# chain: APASSSTKKTQLQLEHLLLDLQMILNGINNYKNPKLTRMLTFKFYMPKNATELKHLQCLEEELKPLEEVLNLTQSKNFHLRPRDLISNINVIVLELKGSETTFMCEYADETATIVEFLNRWITFAQSIISTLTGGGSGGGSGGGSGGGSEPKSSDKTHTSPPSPAPELEGGSSVFLFPPKPKDTLMISRTPEVTCVVVDVSHEDPEVKFNWYVDGVEVHNAKTKPREEQYASTYRVVSVLTVLHQDWLNGKAYACAVSNKALPAPIEKTISKAKGQPREPQVYTLPPSREEMTKNQVSLTCLVKGFYPSDIAVEWESNGQPENNYKTTPPVLDSDGSFFLYSKLTVDKSRWQQGNVFSCSVMHEALHNHYTQKSLSLSPGK
# B7: IL-2gm5 (T3A, M39N, K49N, A73T), IgG1-Fc tag (Fc fusion)
# chain: APASSSTKKTQLQLEHLLLDLQMILNGINNYKNPKLTRNLTFKFYMPKNATELKHLQCLEEELKPLEEVLNLTQSKNFHLRPRDLISNINVIVLELKGSETTFMCEYADETATIVEFLNRWITFAQSIISTLTEPKSSDKTHTSPPSPAPELEGGSSVFLFPPKPKDTLMISRTPEVTCVVVDVSHEDPEVKFNWYVDGVEVHNAKTKPREEQYASTYRVVSVLTVLHQDWLNGKAYACAVSNKALPAPIEKTISKAKGQPREPQVYTLPPSREEMTKNQVSLTCLVKGFYPSDIAVEWESNGQPENNYKTTPPVLDSDGSFFLYSKLTVDKSRWQQGNVFSCSVMHEALHNHYTQKSLSLSPGK
# B8: IL-2gm6 (T3A, M39N, K49N, A73T, D109N), IgG1-Fc tag (Fc fusion)
# chain: B7 chain with D109N
# B9: IL-2qm (T3A, F42A, Y45A, L72G), IgG1-Fc tag (Fc fusion)
# chain: B7 chain with N39M, F42A, Y45A, N49K, L72G, T73A
# notes: copies 2 rests on that; also called IL-2qm-Fc; Rocheglicat (CN103492411B)
# Experiments:
# [1] = target: T1, CD25 on the surface of NK92 cells …; experiment: cell-based or functional assay
# [2] = target: T2, CD25 protein (from Example 2); experiment: ELISA on coated CD25, sample at 0.04 ug/ml, relative to rhIL-2 = 100%
# Procedure: (§1) CD25 (from Example 2) was coated on a 96-well high adsorption microtiter plate (3590, Costar), washed and blocked. The sample to be tested was diluted to an appropriate concentration and added to wells.
# [3] = target: T2, CD25 protein (from Example 2); experiment: ELISA on coated CD25, sample at 0.2 ug/ml, relative to rhIL-2 = 100%
# Procedure: as §1
# [4] = target: T2, CD25 protein (from Example 2); experiment: ELISA on coated CD25
# Procedure: as §1
# [5] = target: T3, CD25 on the surface of CTLL-2 cells …; experiment: cell-based or functional assay
# [6] = target: T2, CD25 protein (from Example 2); experiment: ELISA on coated CD25, sample at 1 ug/ml, relative to rhIL-2 = 100%
# Procedure: as §1
# [7] = target: T4, CD25 on the surface of CTLL-2 cells (mouse cytotoxic T lymphocyte cell line) (mouse); experiment: cell-based or functional assay
# [8] = target: CD25 on the surface of NK92 cells (human NK cell line) (human) (UniProt P01589); experiment: cell-based or functional assay
# [9] = target: T3, CD25 on the surface of CTLL-2 cells …; experiment: cell-based or functional assay; remark: listed apart in the source
# [10] = target: T1, CD25 on the surface of NK92 cells …; experiment: cell-based or functional assay; remark: listed apart in the source
Binder,"EC50 (nM), NK92 cell proliferation [1] [nM]","Potency relative to rhIL-2 (%), NK92 cell proliferation [1] [%]",Binding activity (%) [2] [%],Binding activity (%) [3] [%],binding result [4],"EC50 (nM), CTLL-2 cell proliferation [5] [nM]","Potency relative to rhIL-2 (%), CTLL-2 cell proliferation [5] [%]",Binding activity (%) [6] [%],"EC50 (nM), CTLL-2 cell proliferation [7] [nM]","Potency relative to rhIL-2 (%), CTLL-2 cell proliferation [7] [%]","EC50 (nM), NK92 cell proliferation [8] [nM]","Potency relative to rhIL-2 (%), NK92 cell proliferation [8] [%]","Potency relative to rhIL-2 (%), CTLL-2 cell proliferation [9] [%]","EC50 (nM), NK92 cell proliferation [10] [nM]","Potency relative to rhIL-2 (%), NK92 cell proliferation [10] [%]"
B1,8.91,0.022,1.51,0.99,no binding (tested: 1 ug/ml),8.84,0.033,0.74,,,,,,,
B2,7.76,0.025,1.36,0.99,no binding (tested: 1 ug/ml),16.5,0.018,0.68,,,,,,,
B3,1.07,0.181,1.51,1.18,no binding (tested: 1 ug/ml),2.38,0.122,0.88,,,,,,,
B4,23.2,0.008,1.51,0.99,no binding (tested: 1 ug/ml),47.9,0.006,0.74,,,,,,,
B5,12.7,0.015,1.51,1.08,no binding (tested: 1 ug/ml),15.6,0.019,0.88,,,,,,,
B6,,,,,,,,,0.00919,31.5,0.0152,34.8,,,
B7,,,,,,,,,0.173,1.68,0.0711,7.42,,,
B8,,,,,,,,,5.95,0.049,0.824,0.641,,,
B9,,,1.51,0.99,no binding (tested: 1 ug/ml),,,0.74,,,,,0,0.306,1.73
